Source: US20200369772A1 (ABBA THERAPEUTICS, published 2020)

Tests used:
[1] = biological target: T1, recombinant human PD-L2-Fc-biotin (human, UniProt Q9BQ51 20-220, biotin); assay: blocking of hPD-L2 binding to HEK293-hPD-1 cells
T1 chain: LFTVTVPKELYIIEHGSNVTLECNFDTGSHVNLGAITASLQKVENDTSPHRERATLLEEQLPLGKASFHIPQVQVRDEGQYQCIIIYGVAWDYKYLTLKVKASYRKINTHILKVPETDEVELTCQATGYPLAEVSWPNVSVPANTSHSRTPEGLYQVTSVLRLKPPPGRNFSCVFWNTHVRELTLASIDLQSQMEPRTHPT
How it was run: (§1)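 Recombinant human PD-L2-Fc-biotin (5 ng/ml, 100 pM) was preincubated in 100 μl with serially diluted antibody (0.03 ng/ml-0.5 μg/ml) for 60 min at 4° C, and the mixture was then placed on 1.5×10⁵ HEK293 cells stably expressing human PD-1 for 30 min at 4° C. Ligand bound to the cells was detected by flow cytometry after 20 min at 4° C with fluorochrome-conjugated streptavidin, and control wells set the 0% and 100% binding levels. The IC50 was obtained by non-linear curve fitting in GraphPad Prism.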

[2] = biological target: T2, human PD-L2 (full-length, on cells) (human, UniProt Q9BQ51 20-273); assay: hybridoma supernatant screen on cells expressing human PD-L2
T2 construct: whole, on cells; CHO-K1 cells stably expressing full-length human PD-L2; also endogenous on NCI-H226 and transfected in Jurkat cells; also called hPD-L2; CHO-K1/hPD-L2
T2 sequence (looked up): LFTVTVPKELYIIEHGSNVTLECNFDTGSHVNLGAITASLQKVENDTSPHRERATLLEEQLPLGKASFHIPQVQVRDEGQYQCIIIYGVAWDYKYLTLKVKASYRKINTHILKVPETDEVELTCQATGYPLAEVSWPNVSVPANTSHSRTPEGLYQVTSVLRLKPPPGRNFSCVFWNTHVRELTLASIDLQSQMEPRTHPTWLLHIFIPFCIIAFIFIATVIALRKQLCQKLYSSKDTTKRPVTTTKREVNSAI

[3] = biological target: T3, human PD-L2 (full-length, on cells) (human, UniProt Q9BQ51 20-273); assay: FACS binding to CHO-K1 cells expressing human PD-L2
T3 chain: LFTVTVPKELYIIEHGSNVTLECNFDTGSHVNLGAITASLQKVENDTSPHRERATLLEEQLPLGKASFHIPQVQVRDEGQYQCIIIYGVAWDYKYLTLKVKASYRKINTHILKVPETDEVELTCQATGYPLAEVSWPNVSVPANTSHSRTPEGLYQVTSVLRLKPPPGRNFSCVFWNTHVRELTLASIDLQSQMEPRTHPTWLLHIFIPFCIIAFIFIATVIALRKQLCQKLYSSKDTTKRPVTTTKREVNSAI
How it was run: (§2)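 Binding to CHO-K1 cells stably expressing full-length human PD-L2 was measured by flow cytometry on a BD FACSCalibur. They were then stained for 20 min at 4° C with APC-labelled anti-rat IgG or anti-human IgG Fc, matching the antibody format. Binding EC50 came from non-linear curve fitting of percentage of maximal binding against concentration in GraphPad Prism.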

[4] = biological target: T3, human PD-L2 (full-length, on cells); assay: FACS, NCI-H226 cells
How it was run: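 Binding to endogenous PD-L2 on NCI-H226 human lung squamous carcinoma cells (1.5×10⁵) was measured by flow cytometry on a BD FACSCalibur. They were then stained with APC-labelled goat anti-rat IgG (1:2000) for 20 min at 4° C. Binding EC50 came from non-linear fitting of percentage of maximal binding against concentration in GraphPad Prism.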

[5] = biological target: T4, mouse PD-L2 (full-length, on cells) (mouse, UniProt Q9WUL5 20-247); assay: FACS on HEK293 cells stably expressing full-length mouse PD-L2
T4 construct: whole, on cells; HEK293 cells stably expressing full-length mouse PD-L2
T4 sequence (looked up): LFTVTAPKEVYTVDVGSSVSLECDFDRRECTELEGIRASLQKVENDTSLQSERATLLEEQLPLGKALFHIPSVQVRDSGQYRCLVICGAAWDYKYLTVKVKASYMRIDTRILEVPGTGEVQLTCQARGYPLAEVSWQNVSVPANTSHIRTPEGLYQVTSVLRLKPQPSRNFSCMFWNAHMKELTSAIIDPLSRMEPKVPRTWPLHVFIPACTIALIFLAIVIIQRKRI
Protocol: (§3) The ability of anti-PD-L2 antibodies binding to mouse PD-L2, human PD-L1 or cyno PD-L2 was determined by FACS. HEK293 cells stably expressing full-length monkey PD-L2, mouse PD-L2 or human PD-L1 were established, subcloned and verified. For binding assay, 1.5×10⁵ cells in 100 μl of FACSwash buffer were incubated with individual anti-PD-L2 antibodies (0.5 μg/ml) for 30 min. After three times of washing, the cells were re-suspended in FACSwash buffer containing FITC-labelled goat-anti-rat IgG (Thermo Fisher, 1:1000) or APC-labelled goat-anti-ratIgG (Biolegend, Clone Poly4054) at a 1:2000 dilution for 20 min at 4° C., washed three times and subsequently subjected to FACS analysis. FACS data was analysed using FlowJo Software and depicted as histograms including secondary antibody only controls.

[6] = biological target: T1, recombinant human PD-L2-Fc-biotin; assay: blocking of PD-L2 - PD-1 interaction (cell binding); low antigen concentration
How it was run: as §1

[7] = biological target: T3, human PD-L2 (full-length, on cells); assay: FACS, CHO-K1 expressing human PD-L2
How it was run: as §2

[8] = biological target: T3, human PD-L2 (full-length, on cells); assay: blocking of hPD-1 binding to CHO-K1/hPD-L2 cells
How it was run: (§4)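 Human PD-L2 was stably expressed in CHO-K1 cells, and 1.5×10⁵ of these cells were exposed to serially diluted antibody (0.25 ng/ml-4 μg/ml) for 30 min at 4° C and then washed. Recombinant human PD-1-mouse Fc was added at 0.5 μg/ml for 30 min at 4° C, followed by fluorochrome-conjugated anti-mouse IgG2a (1:200) for 20 min at 4° C.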

[9] = biological target: T3, human PD-L2 (full-length, on cells); assay: FACS blocking of PD-1 binding to CHO-K1/hPD-L2; high antigen concentration
How it was run: as §4

[10] = biological target: T5, human PD-L1 (full-length, on cells) (human, UniProt Q9NZQ7 19-290); assay: FACS on HEK293 cells stably expressing full-length human PD-L1
T5 construct: whole, on cells; HEK293 cells stably expressing full-length human PD-L1
T5 sequence (Q9NZQ7 19-290): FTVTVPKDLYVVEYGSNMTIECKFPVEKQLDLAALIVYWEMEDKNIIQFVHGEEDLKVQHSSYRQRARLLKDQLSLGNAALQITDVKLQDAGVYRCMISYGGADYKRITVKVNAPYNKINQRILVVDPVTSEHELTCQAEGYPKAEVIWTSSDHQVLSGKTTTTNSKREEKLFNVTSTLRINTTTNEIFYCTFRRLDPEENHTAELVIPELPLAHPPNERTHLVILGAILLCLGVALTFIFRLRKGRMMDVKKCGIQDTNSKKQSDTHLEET
Protocol: as §3

[11] = biological target: T2, human PD-L2 (full-length, on cells); assay: FACS binding on cells expressing human PD-L2 (per the examples)
[12] = biological target: T3, human PD-L2 (full-length, on cells); assay: FACS binding to CHO-K1 cells expressing human PD-L2
How it was run: as §2

Binder	IC50 [1]	binding result [2]	EC50 [3]	EC50 [4]	binding result [5]	IC50 [6]	EC50 [7]	IC50 [8]	IC50 [9]	binding result [10]	binding result [11]	EC50 [12]
12A1-D4 (antibody, V domains shown, Both formats under this entry) VH: QVQLQESGPGLVKPSGTLSLTCAVSGGSISSNNWWSWVRQPPGKGLEWIGEIFHVGSTNYNPSLKSRVTISVDKSKNQFSLKLSSLTAADTAVYYCARMVGATGHYYGMDVWGQGTTVTVSS VL: DIQLTQSPSFLSASVGDRVTITCRASQGISSSLAWYQQKPGKAPKFLIYAASTLQSGVPSRFSGSGSGTEFTLTISSLQPEDFATYYCQQLNSYPKSWTFGQGTKVEIK	0.013 nM	binds	0.42 nM	0.0989 nM	no binding (tested: 0.5 µg/ml)	0.0103 nM	0.265 nM	0.37 nM	0.127 nM	no binding (tested: 0.5 µg/ml)		
2-19H2 (antibody, V domains shown, VH of 19B3-B3 M23K.M63L.HC with VL of 2C4-E4; kappa; also called 2-H192) VH: QVQLVQSGAEVKKPGASVKVSCKASGYTFTNYAIHWVRQAPGQRLEWMGWINTGLGKPKYSQLFQDRVTITRDTSASTASMELSGLRSDDTAVYYCARVGWELYFDYWGQGTLVTVSS VL: DIQMTQSPSTLSASVGDRVTITCRASQTISSWLAWYQQKPGKAPNLLIYKASSLESGVPSRFSGSGSGTEFTLTISSLQPDDFATYYCQQYYSYWTFGQGTKVEIK											binds	
19B3-B3 (antibody, V domains shown, Both formats under this entry) VH: QVQLVQSGAEVKKPGASVKVSCMASGYTFTNYAIHWVRQAPGQRLEWMGWINTGLGKPKYSQMFQDRVTITRDTSASTASMELSGLRSDDTAVYYCARVGWELYFDYWGQGTLVTVSS VL: DIQMTQSPSTLSASVGDRVTITCRASQSISSLLAWYQQKPGKAPKLLIYKASSLESGVPSRFSGSGSGTEFTLTISSLQPDDFATYFCQQYNSYWTFGQGTKVEIK	0.017 nM	binds	0.34 nM	0.177 nM	no binding (tested: 0.5 µg/ml)	0.0248 nM	0.338 nM	0.4 nM	0.464 nM	no binding (tested: 0.5 µg/ml)		0.37 nM
7H5-C5 (antibody, V domains shown, Both formats under this entry) VH: QVQLVESGGGLVKPGGSLRLSCAASGFSLSDYYMSWTRQAPGRGLEWVSFISSSGSTIYYVDSVKGRFTISRDHAKNSLYLQINSLRAEDTAVYYCARAQWLPDFDYWGQGTLVTVSS VL: QSALTQPPSASGSPGQSVTISCTGTSSDVSGYNYVSWYQHHPDKAPKLLIYEVNKRPSGVPARFSGSKSGNTASLTVSGLQAEDEADYYCTSFADNNNVVFGGGTKLTVLG	0.026 nM	binds	1.6 nM	0.517 nM	no binding (tested: 0.5 µg/ml)	0.0311 nM	0.765 nM	0.93 nM	0.58 nM	no binding (tested: 0.5 µg/ml)		
9A3-C7 (antibody, V domains shown, Both formats under this entry) VH: QVQLVESGGGLVKPGGSLRLSCAASGFSLSDYYMSWIRQAPGRGLEWVSYISSSGSTIYYVDSVKGRFTISRDNAKNSLYLQINSLRAEDTAVYHCARAQWLPDFDYWGQGTLVTVSS VL: QSALTQPPSASGSPGQSVTISCTGTSSDVGGYNYVSWYQHHPGKVPKLMIYEVSKRPSGVPDRFSGSKSGNTASLTVSGLQAEDEADYYCTSFADNNNVGFGGGTKLTVLG	0.029 nM	binds		0.644 nM	no binding (tested: 0.5 µg/ml)	0.0375 nM	0.873 nM	1.2 nM	0.733 nM	no binding (tested: 0.5 µg/ml)		
10D1-G1 (antibody, V domains shown, Both formats under this entry) VH: QVQLQESGPGLVKPSGTLSLTCAVSGGSISSSYWWSWVRQPPGKGLEWIGEIFHIGSTNYNPSLRSRVTISVVKSKNQFSLNLNSVTAADTAVYFCARVSGGYGYFSGMDVWGQGTTVTVSS VL: DIQMTQSPSSLSASVGDRVTITCRASQGIRNDLGWYQQKPGKAPKRLIYGASSLQSGVPSRFSGSGSGTEFTLTISSLQPEDFATYYCLQHNSYPRTFGQGTKVEIK	0.014 nM		0.38 nM	0.146 nM	no binding (tested: 0.5 µg/ml)	0.0252 nM	0.408 nM	0.4 nM	0.343 nM	no binding (tested: 0.5 µg/ml)	binds	0.37 nM
10A9-D2 (antibody, V domains shown, Both formats under this entry) VH: QVQLQESGPGLVKPSETLSLTCAVSGGSISSSYWWSWVRQPPGKGLEWVGEVFHVGVTNYNPSLKSRVTISVDKSKNQFSLKLTSVTAADTAVYYCARVTGTTGYYHGLDVWGQGTTVTVFS VL: DIQMTQSPSSLSASVGDRVTITCRASQGIRNDLGWYQQKPGKVPKRLIYAASSLQSGIPSRFSGSGSGTEFTLTISSLQPEDFATYYCLQHNNYPRTFGQGTKVEIK	0.012 nM	binds	0.38 nM	0.0776 nM	no binding (tested: 0.5 µg/ml)	0.0103 nM	0.252 nM	0.34 nM	0.198 nM	no binding (tested: 0.5 µg/ml)		0.32 nM
